This note sets out measurements from the nanobody polyreactivity screen of Harvey et al. (2022).

The nature of the series: yeast display, Sf9 membrane polyspecificity reagent, FACS + sequencing; frameworks hold sequencing errors. The essentials:
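Sorting gates, low and high (top ~1%), were placed on anti-HA fluorescence to track expression and on streptavidin fluorescence to track reagent binding. A clone's polyreactivity label is taken from the gate it came out of. The reagent was 10% biotinylated, detergent-solubilized Sf9 membrane, applied for 1 hour at 4 °C to galactose-induced yeast display cells.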
On to “QVQLVESGGGLVQAGGSLRLSCAASGITLSTYAMGWYRPAPGKERELVATITGNGDRTYYADSVKGRFTISRDNAKNTVYLQMNSLKPEDTAVYYCAKDSPGDGIGYGYWGQGTQVTVSS”, for which the “polyreactivity (PSR sort gate)” value is listed as “low polyreactivity”.
The same measure for “QVQLVESGGGLVQAGGSLRLSCAASGITLSYNVMGWYRQEPGKEREFVAAITGGRTYYADSVKGRFTISRDNAKNTVYLQMNSLKPEDTAVYYCAADAPGHEYYYWGQGTQVTVSS”: “high polyreactivity”.
The same measure for “QVQLVESGGGLVQAGGSLRLSCAASGITLSYYAMGWYGPAPGKERELVAAISSNGGRTYYADSVMGRFTISRDNAKNTVYLQMNSLKPEDTAVYYCAARVYDYPRFGYWGQGTQVTVSS”: “high polyreactivity”.
Consider “QVQLVESGGGLVQAGGSLRLSCAASGITLYDNAMGWYRQAPGKERELVAAINVNDVSTYYADSVKGRFTISRDNAKNTVYLQKNSLKPEDTAVYYCAADSLYYGIGYWVVRYDYWGQGTQVTVSS”, for which the “polyreactivity (PSR sort gate)” value is reported as “low polyreactivity”.
The same measure for “QVQLVESGGGLVQAGGSLRLSCAASGITLYINAMGWYRQAPGKERELVAAITRIGGRTYYADSVKGRFTISRDNAKNTVYLQMNSLKPEDTAVYYCNARTYNAFNYWGQGTQVTVSS”: “high polyreactivity”; for “QVQLVESGGGLVQAGGSLRLSCAASGITLYKYAMGWYRQAPGKERELVASISRSGGSTYYADSVKGRFTISRDNAKNTVYLQMNSLKPEDTAVYYCNARAKSYRFGYWGQGTQVTVSS”: “high polyreactivity”; for “QVQLVESGGGLVQAGGSLRLSCAASGITLYLNAMGWYRQAPGKERELVAAITASGGSTYADSVKGRFTISRDNAQNTVYLQMNSLKPEDTAVYYCAADVIYEYYFTFGVGYYEYDYWGQGTQVTVSS”: “low polyreactivity”.
“QVQLVESGGGLVQAGGSLRLSCAASGITLYRYVMGWYRQAPGKERELVADISGRGTSTYYADSVKGRFTISRDNAKNTVYLQMNSLKPEETAVYYCNAEYTKTGALVIPYTYYYAEDYWGQGTQVTVSS”: the “polyreactivity (PSR sort gate)” value was “low polyreactivity”.
The same measure for “QVQLVESGGGLVQAGGSLRLSCAASGITLYYNAMGWYRQAPGKESELVAAITWSGSRTYYADSVKGRFTISRDNAKNTVYLQMNSLKPEDTAVSYCAADVDFWNTVEDMDYWGQGNQVTVSS”: “low polyreactivity”; for “QVQLVESGGGLVQAGGSLRLSCAASGITSGNNAMGWYRQAPGKERELVAAISWTGGSTYYADSVKGRFTISRDNAKNTVYLEMNSLKPEDTAVYYCAAGGWDPFTEQHYEYWGQGTQVTVSS”: “low polyreactivity”.
“QVQLVESGGGLVQAGGSLRLSCAASGITSGTYAMGRYRQAPGKERELVAGISRSGTRTYYADSVKGRFTISRDNAKNTVYLQMNSLKPEDTEVYYCNTYVGRRPGYGYWGQGTQVTVSS”: the “polyreactivity (PSR sort gate)” value is recorded as “high polyreactivity”.
For “QVQLVESGGGLVQAGGSLRLSCAASGITSHPYDMGWYRQAPGKERELVAVITSGGSTSYADSVKGRFTISRDNAKNTVYLQMNSLKPEDTAVYYCNADSWYAWYSYGYDYWGQGTQVTVSS”, the “polyreactivity (PSR sort gate)” value was “low polyreactivity”.
Take “QVQLVESGGGLVQAGGSLRLSCAASGITSSLNAMGWYRQAPGKERELVAAISWRGGSTYYADSVKGRFTISRDNAKNTVYLQMNSLKPEDTAVYYCAARSSYRKMDYWGQGTQVTVSS”: the “polyreactivity (PSR sort gate)” value was “high polyreactivity”.
For “QVQLVESGGGLVQAGGSLRLSCAASGITSSTYAMGWYRQAPGKERELVAAISLSGSSTNYADSVKGRFTISRDNAKNTVYLQMNSLKPEDTAVYYCAATNYRTYPYGYWGQGTQVTVSS”, the “polyreactivity (PSR sort gate)” value was “high polyreactivity”.
As for “QVQLVESGGGLVQAGGSLRLSCAASGITSYYYTMGWYRQAPGKERELVAAITSGGSTYYADSVKGRFTISRDNAKNSVYLQMNSLKPEDTAVYYCTADNPRYRGSKYGPYDDYNYWGQGTQVTVSS”, the entry is “low polyreactivity”.
For the sequence “QVQLVESGGGLVQAGGSLRLSCAASGITVLKYVMGWYRQAPGKEREFVAAITARGGTTYYADSVKGRFTISRDNAKNTVYLQMNSLKQEDTAVYYCAARSYYSGLAYYYWGQGTQVTVSS”, the “polyreactivity (PSR sort gate)” value was “high polyreactivity”.
On to “QVQLVESGGGLVQAGGSLRLSCAASGITYGIYSMGWYRQAPGKERELVAAIDGSDGSTYYADSVKGRFTISRDNAKNTVYLQMNSLKPEDTAVYYCNADTGGYYVTGSYLYNEYDYWGQGTQVTVSS”, for which the “polyreactivity (PSR sort gate)” value is “low polyreactivity”.
As for “QVQLVESGGGLVQAGGSLRLSCAASGITYTSYAMGWYRQAPGKERELVAAISSSGGSTYYADSVKGRFTISRDNAKNTVYLQMNSLKPEDTAVYYCIARPRSRSPRVEYDYWGQGTQVTVSS”, the entry is “high polyreactivity”.
Regarding “QVQLVESGGGLVQAGGSLRLSCAASGITYVSNAMGWYRQAPGKERELFAANTRRGTSTYYADSVKGRFTLSRDNAKNTVYLQMNSLKPVDTAVYYCNKVWKYSSSGFGKEVYGYDYWGQGTQVTVSS”, the “polyreactivity (PSR sort gate)” value was “high polyreactivity”.
Regarding “QVQLVESGGGLVQAGGSLRLSCAASGIYAMGWYRQAPGKERELVAAIRWSGGSTYYADSVKGRFTISRDNAKNTVYLQMNSLKPEDTAVYYCAKRLRPGGYWYDYWGQGTQVTVSS”, the “polyreactivity (PSR sort gate)” value was “high polyreactivity”.
The same measure for “QVQLVESGGGLVQAGGSLRLSCAASGIYYNAMGWYRHAPGKERELVAAITTGDRTNYADSVKGRFTISRDNAKNTVYLQMNSLKPEDTAVYYCNAVVERLSSTARDFAYDYWGQGTQVTVSS”: “low polyreactivity”.
The same measure for “QVQLVESGGGLVQAGGSLRLSCAASGLAFVFNAMGWYRQAPGKERELVAAISSGDDTNYADSVKGRFTISRDNAKNTVYLQMNSLKPEDTAVYNCAKTSDPIKRPYYYWGQGTQVTVSS”: “low polyreactivity”.
As for “QVQLVESGGGLVQAGGSLRLSCAASGLFFFYYAMGWYRQAPGKERELDAAIRTNYADSVKGRFTISRDNAKNTVYLQMNSLKPEDTAVYYCAAESSQTPTSAFDYWGQGTQVTVSS”, the entry is “low polyreactivity”.
For “QVQLVESGGGLVQAGGSLRLSCAASGLIFAHYAMGWYRQAPGTERELVAGITSGGSTNYADSVKGRFTISRDNAKNTVYLQMNSLKPEDTAVYYCNADRAGFLGFYLYDYWGQGTQVTVSS”, the “polyreactivity (PSR sort gate)” value is listed as “low polyreactivity”.
As for “QVQLVESGGGLVQAGGSLRLSCAASGLIFARNAMGWYRQAPGKERELVAAISRSGSTNYADSVKGRFTISRDNAKNTVYLQMNSLIPEDTAVYYCAAGPWGTGHYVQGPVYYYRYDYWGQGTQVTVSS”, the entry is “low polyreactivity”.
As for “QVQLVESGGGLVQAGGSLRLSCAASGLIFARNAMGWYRQAPGKERELVAAISSSGNTYADSVKGRFTISRDNAKNTVYLQMNSLKPEDTAVYYCNKYGVVLPGFDYWGQGTQVTVSS”, the entry is “high polyreactivity”; as for “QVQLVESGGGLVQAGGSLRLSCAASGLIFDDYDMGWYRQAPGKERELVAAISLSGGSTFYADSVKGRFTISRDNAKNTVYLLMNSLKPEDTAVYYCAAQARRAYVQTRKYYWGQGTQVTVSS”, “high polyreactivity”.
Consider “QVQLVESGGGLVQAGGSLRLSCAASGLIFDINAMGWYRQAPGKERDLVAAISFSDGITYYADSVKGRFTISRDNAKNTVYLHMNSLKPEDTAVYYCAVDYRIYRSGPMDYWGQGTQVTVSS”, for which the “polyreactivity (PSR sort gate)” value was “high polyreactivity”.
The same measure for “QVQLVESGGGLVQAGGSLRLSCAASGLIFDYYAMGWYRQAPGKERELVAAITSSSGITYYADSVKGRFTISRDNAKNTVYLQMNSLKPEDTAVYYCAAYTTYKLYEYDYWGQGTQVTVSS”: “low polyreactivity”; for “QVQLVESGGGLVQAGGSLRLSCAASGLIFEEYAMGWYRQAPGKERELVAGIDSSGSTNYADSVKGRFTISRDNAKNTVYLQMNSLKPEDTAVYYCTARGYYPRWYYVFRGNYWGQGTQVTVSS”: “low polyreactivity”.
As for “QVQLVESGGGLVQAGGSLRLSCAASGLIFFYYAMGWYRQAPGKERELVATINWNGGSTYYADSVKGRFTISRDNAKNTVYLQMNSLKPEDTAVYYCAADAPAGGDSDNDYWGQGTQVTVSS”, the entry is “high polyreactivity”.
Turning to “QVQLVESGGGLVQAGGSLRLSCAASGLIFGFYAMGWYRQAPGKERELVAAINSGGITYYADSVKGRFTISRDNAKNTVYFQMNSLKPEDTAVYYCNKDSHISTAYDYWGQGTQVTVSS”, the “polyreactivity (PSR sort gate)” value is listed as “low polyreactivity”.
As for “QVQLVESGGGLVQAGGSLRLSCAASGLIFGGNAMGWYRQAPGKERELVAAISRTGGRTYYADSVKGRFTISRDNAKNTVYLQMNSLKPDDTAVYFCAAAAQRPEGYYWGQGTQVTVSS”, the entry is “high polyreactivity”; as for “QVQLVESGGGLVQAGGSLRLSCAASGLIFGGNAMGWYRQAPGKERELVAAITYRTGSTYYADSVKGRFTISRDNAKITVYLQMNSLKPEDTAVYDCAAAVSLGYPVAFYYWGQGTQVTVSS”, “low polyreactivity”; as for “QVQLVESGGGLVQAGGSLRLSCAASGLIFGGYTMGWYRQAPGKERELVAAIDSGGSTKYADSVKGRFTISRDNAKNTVYLQMNSLKPEDTAVYYCAARDYYAWRYRYHHEVSEFDYWGQGTHVTVSS”, “low polyreactivity”.
“QVQLVESGGGLVQAGGSLRLSCAASGLIFGNNAMGWYRQAPGKERELVAAISWSTGGSTYYADSVKGRFTISRDNAKNTVYLQMNSLKPEDTAVYYCAAQYSYGEYWGYDYWGQGTQVTVSS”: the “polyreactivity (PSR sort gate)” value was “low polyreactivity”.
The same measure for “QVQLVESGGGLVQAGGSLRLSCAASGLIFGRYAMGGYRQAPGKEREFVAAITWRVGTTYYADSVKGRFTISRDNAKITVYLQMNSLKPEDTAVYYCAARSRTGRYDYWGQGTQVTVSS”: “high polyreactivity”; for “QVQLVESGGGLVQAGGSLRLSCAASGLIFGSYAMGWYRQAPGKERELVAAINKSGGSTYYADSVKGRFTISRDNAKNTVYLQMNSLKPEDTAVYYCAKGRSKYYQPGQRDYWGQGTQVTVSS”: “high polyreactivity”; for “QVQLVESGGGLVQAGGSLRLSCAASGLIFGTYAMGWYRQAPGKERELVAVISSSGGSTYYADSVKGRFTISRDNAKNTVYLQMNSLKPEDTAVYYCNARAFRQGHFEYDYWGQGTQVTVSS”: “low polyreactivity”.
Consider “QVQLVESGGGLVQAGGSLRLSCAASGLIFGVNAMGLYRQAPGTESELVAAITSRGGSTYYADSVKGRFTISRDNAKNTVYLQMNSLKPEDTAVDYCAAKYAYYEPYSWRPQRTYNYWGQGTQVTVSS”, for which the “polyreactivity (PSR sort gate)” value is “high polyreactivity”.
